Results taken from the supplement of paper PMC10724198.
± gives the standard deviation of the averaged measurements.

system: Saccharomyces cerevisiae; assay: protein stability index of tFT-peptide fusion (C-terminal peptide) (PSI (0-1 scale)); higher = more stable (slower turnover); conditions: genetic background: wild type; temperature: 30 C
Protocol: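 Multiplexed protein stability (MPS) profiling in S. cerevisiae. Random 12-aa peptides (tFT-X12 library) are fused to the C-terminus of a sfGFP-mCherry tandem fluorescent timer, after mCherry and a GGGS linker. Cells are FACS-sorted into 8 mCherry/sfGFP bins and deep-sequenced. The protein stability index (PSI) is the read-weighted bin average, scaled from 0 (unstable) to 1 (stable). Only peptides with >10 reads are reported; cells were grown at 30 °C in SC-His with glucose.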
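Note: PSI is a weighted mean of sequencing reads over stability bins, variants kept only with over 10 reads, mCherry proximal and sfGFP distal, peptide attached via GGGS linker.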

Sequence	protein stability index
SGVVGLSTSGVV	0.695 ± 0.063
PTHALLGCTCAN	0.681 ± 0.024
QPTPRPSPRPAC	0.672 ± 0.025
SNAIPGSHLCRS	0.719 ± 0.093
VGWRCWVGSVGL	0.6686 ± 0.0029
SFLWRRSYFVFR	0.616 ± 0.017
CVWHELTYGSLY	0.66 ± 0.062
RVVFHPFVQSLF	0.62 ± 0.028
GTTLGEVVCGVL	0.683 ± 0.045
FCNPHVGGIRRA	0.684 ± 0.05
GLRPPGLRLGSL	0.6475 ± 0.0047
LPAWSYPSGWLL	0.718 ± 0.044
GLGKFSALSLVV	0.658 ± 0.044
VYEGIQEKTTRQ	0.5754 ± 0.0057
PLLPPALCPFPP	0.685 ± 0.029
CSFFGPGFICSL	0.666 ± 0.013
PPPTDSQTTWHP	0.705 ± 0.018
SLPASTEPNVGT	0.696 ± 0.034
RVIHLRKIHYEE	0.6728 ± 0.005
APSLPPVVQPLI	0.663 ± 0.023
RGGVRGAIHSDL	0.7039 ± 0.0025
SSSVSYFLHYCI	0.606 ± 0.038
ATLDVTALRQES	0.636 ± 0.011
CKIGMFIRWIGG	0.571 ± 0.04
RFLEKNKKVIDK	0.742 ± 0.037

Sequence	protein stability index
ASSDRWVVYLYG	0.685 ± 0.0083
CTLSQGLSGSRI	0.6609 ± 0.0024
CWLGSIAGLRGR	0.7399 ± 0.0064
CAAVPLLASDVR	0.688 ± 0.011
KVVGRLGVERVR	0.753 ± 0.0052
PPCPPPPPVLPT	0.66722 ± 0.00014
PSVYAASPPLPP	0.68 ± 0.03
PSAPFPFPALGA	0.61 ± 0.028
PSQPLPPSRHRP	0.616 ± 0.037
VCGLRFLLFGCG	0.63 ± 0.021
LWDQFAVSCFGG	0.745 ± 0.016
RYGHSRLCLGFR	0.657 ± 0.12
SPGSPLSPPAPP	0.62 ± 0.04
RASAHLVAIVRY	0.642 ± 0.02
LHPAPPAAPTRP	0.711 ± 0.016
LSVNAGWLQLCA	0.561 ± 0.018
GSFVLPLIYIHN	0.499 ± 0.0025
GGRHGSSRTGGY	0.696 ± 0.018
ARRPGGGRSGGN	0.672 ± 0.039
APPPFRAPPGFR	0.845 ± 0.093
FPPARPDFPPST	0.735 ± 0.025
PDGGFSSVVSLR	0.686 ± 0.076
SVLSVAIRAPTQ	0.691 ± 0.093
GVDGRWGGEMGR	0.747 ± 0.097
PFPSPSPLARLP	0.704 ± 0.054

Sequence	protein stability index
RGEGLRYVQGSR	0.668 ± 0.042
SVGGVGGAVGGG	0.663 ± 0.014
SYDNPPDTSRPR	0.768 ± 0.046
DGASAARQGGAR	0.7171 ± 0.00082
PAPPPPPPPPLH	0.701 ± 0.083
LRRMQGTGCPLP	0.643 ± 0.035
AGGSTGMGARSR	0.688 ± 0.015
SSVGLRTRRTAR	0.638 ± 0.081
LCSPCSSLFHSQ	0.656 ± 0.032
FISVFYMLFPYR	0.626 ± 0.013
PSLLPPATLLPI	0.718 ± 0.072
SVPGLELGLPLR	0.675 ± 0.061
LKPKLDFHIWDV	0.67 ± 0.1
RSRPPPSPTTPL	0.775 ± 0.054
PSFPHLPDFFIP	0.6779 ± 0.0019
IGFCVRGYGTTG	0.727 ± 0.1
DRRRGMVRKTHV	0.659 ± 0.019
PLRAPPHPPPVP	0.623 ± 0.048
LGGRGGACRRDR	0.7 ± 0.019
TTRACVTRGCSV	0.623 ± 0.051
WYFSSPPPFFSP	0.766 ± 0.058
LVGWVCRERELG	0.718 ± 0.06
GESWGGVGDVRR	0.762 ± 0.028
IPPLPSSIPRSF	0.673 ± 0.022
HKTNTSRKSRRT	0.737 ± 0.12

Sequence	protein stability index
CRLRLVYCVKYD	0.621 ± 0.013
EGEVGGVVLPRI	0.696 ± 0.04
RAPNSVPSIKKP	0.68 ± 0.098
RISIHGECHFHK	0.654 ± 0.014
VSRVDGAGHSAV	0.66 ± 0.0088
RPGGSRTEGRRT	0.683 ± 0.033
TAQKHQQPVQLH	0.715 ± 0.028
EYISNLLSSPEP	0.633 ± 0.013
LRKCVKAECKSQ	0.684 ± 0.037
SAVPFLRASRNA	0.693 ± 0.034
SVLVLPVLFLED	0.6884 ± 0.004
NKKKKKKRKRVK	0.701 ± 0.049
INEEIVDMKRLL	0.697 ± 0.0095
AVQTTGRAGRVG	0.683 ± 0.056
PPPLPPLPPPTL	0.698 ± 0.045
SRVVAGLWRGAV	0.671 ± 0.18
KNNNREKLRQSM	0.623 ± 0.056
VRCCFGGRGGRA	0.637 ± 0.035
TASFVSSGLLAF	0.586 ± 0.012
FVKRFSNGGVKT	0.775 ± 0.027
EGSGEGEEAGGV	0.6497 ± 0.0047
VVLSRSLTDLVR	0.677 ± 0.077
VEAGDYAWDEAA	0.657 ± 0.056
VPPPPPSRSRPV	0.713 ± 0.032
GPLRFSLPPPPS	0.69 ± 0.017

Sequence	protein stability index
FHRSNFLPFFHL	0.593 ± 0.092
PPPTPPPGTYSL	0.579 ± 0.011
GGAGLGSRSSAL	0.743 ± 0.008
CFPRVLFPVAAP	0.608 ± 0.049
APSPPSSPSAPP	0.643 ± 0.052
PSRRPAVLPPLI	0.6719 ± 0.0015
GVVGCSCLGCGF	0.717 ± 0.054
LEDGDRVYQVTI	0.655 ± 0.012
PPLPAPPPPFPP	0.59 ± 0.022
GLPPPPQPLPHA	0.726 ± 0.14
PGGAGKAYGSRL	0.707 ± 0.012
STVFAICQVLPI	0.6592 ± 0.0021
LPLRAHPTISFP	0.751 ± 0.05
KVKIKREKKKRK	0.672 ± 0.017
DFSLRCIAIPRV	0.651 ± 0.046
VCAFGFPAASRV	0.6627 ± 0.0046
TLLCGDASVLTA	0.658 ± 0.071
AIVRFAPWPVPR	0.701 ± 0.043
MSVRGGEGVVGE	0.614 ± 0.025
YQGSFGLCRLML	0.808 ± 0.034
LLLLSTCSPLLL	0.618 ± 0.021
SGWSWLGLRSGL	0.738 ± 0.025
GVMASLVRMSQG	0.679 ± 0.11
DVGWRATGVLGG	0.7106 ± 0.0052
SGAGRRRGGARE	0.651 ± 0.031

Sequence	protein stability index
PPLPRPSLPPLP	0.676 ± 0.054
KWREQPRNDIVL	0.604 ± 0.047
PSPRSSPPCSAS	0.693 ± 0.039
RSLRSSRSGTLA	0.848 ± 0.014
SSFPPAPHAPHD	0.739 ± 0.03
FGEAFYVGCVHV	0.698 ± 0.037
TELSLHFAGYAE	0.74 ± 0.031
IACSVWYCCMVI	0.526 ± 0.014
VFLGCCWVHFFY	0.534 ± 0.0062
LSWDVWWYFLSV	0.594 ± 0.0063
LLFFRSPFSLVS	0.6465 ± 0.0059
SESLLSQPIVLV	0.647 ± 0.017
SSRRYSGLSFTS	0.702 ± 0.015
EGEGQGWGGQGG	0.6994 ± 0.0021
PPLPPPLLPSSS	0.711 ± 0.12
PPPPRHPAAAPP	0.7668 ± 0.0075
CGWLTCSAGFCA	0.726 ± 0.11
SRAGAVLSGIES	0.669 ± 0.013
PPHAPKPPPTAA	0.588 ± 0.077
PPPSPALPLPPY	0.712 ± 0.019
PPSPPPPPSSPP	0.707 ± 0.071
DLIRIRHACGFL	0.663 ± 0.048
FSLWPVRFVVDR	0.679 ± 0.041
PLLPSGIPLFLS	0.574 ± 0.016
PDTCRYTAFHFH	0.586 ± 0.02

Sequence	protein stability index
KIKKLKKRNKSY	0.612 ± 0.023
APSVSKNSEVRK	0.681 ± 0.019
GGGAGGGSDRVV	0.736 ± 0.0096
LPPHPPPCPPLL	0.733 ± 0.088
VVSHRGVGKGEG	0.607 ± 0.047
YRQIIPSFTLGL	0.715 ± 0.036
RHSSRYLIEFDN	0.744 ± 0.03
CVGPSVERGFWG	0.689 ± 0.031
LCPNFFFFSSSP	0.75 ± 0.017
PLMKHSHSSLPF	0.7016 ± 0.0043
PLFPPASVVVLY	0.663 ± 0.036
RSPPPSLTPSPL	0.68193 ± 0.00027
ACSHFLEEFCFF	0.75 ± 0.046
RGSILTTVNPPR	0.75 ± 0.13
GSVMGRRTGAFV	0.653 ± 0.041
SPPPFLCSPFVA	0.684 ± 0.024
VLMGAGGHSWER	0.725 ± 0.037
GRRGRSASRIRA	0.76 ± 0.14
VLCGALRIVGHK	0.603 ± 0.017
CSVVMGFYCRGA	0.694 ± 0.038
PPPSCPLSPPRL	0.668 ± 0.0046
FVWRVGGVRRGV	0.758 ± 0.09
ECGLGGCGGLGV	0.705 ± 0.03
PPLLRSPPPLSP	0.675 ± 0.022
SSPLSSPLSTAP	0.622 ± 0.018

Sequence	protein stability index
LVKLGSTLSGVG	0.582 ± 0.026
AAGCSSGQAQFG	0.727 ± 0.09
PTTLCLSDRPQP	0.721 ± 0.0081
SKLQGYRKLLST	0.567 ± 0.0065
RKEQEDVHNKKK	0.671 ± 0.051
GSCVGASRGWLV	0.727 ± 0.068
WFSSPVTISTRK	0.692 ± 0.11
SLVGFLPLWPSS	0.64 ± 0.0085
VVRLGSNYYGGT	0.756 ± 0.004
PPPLRPPPPPLP	0.645 ± 0.021
RWVGWGAWLSEV	0.611 ± 0.02
PPPPPPPPRLTF	0.698 ± 0.094
RALLGSVVCSYG	0.6268 ± 0.0016
RWVWRNRSGGGE	0.636 ± 0.043
YALPPPPHPLSF	0.591 ± 0.018
SALVLVLPSIPP	0.649 ± 0.024
QDSTNTPHTCRS	0.695 ± 0.06
SLLPILFPPPPF	0.7147 ± 0.0046
VTSSLHAVPWSR	0.693 ± 0.0088
PLPPLPPTAPPP	0.686 ± 0.015
KEEGLKRAKGPQ	0.642 ± 0.02
